Article PMC13466322, “Immunoglobulin Superfamily Protein BTNL9 Functions as a Non-Canonical Transcriptional Regulator to Suppress NSCLC Through Cell Cycle and p53 Pathways” (International Journal of Molecular Sciences, 2026)

Target: the molecule itself
Assay: native gel or EMSA; lysates of A549 and NCI-H460 cells in RIPA buffer; non-reducing LDS sample buffer; NativePAGE Bis-Tris 3-12% gel, run 1.5 h; Western blot; interpreted qualitatively

B1: Butyrophilin-like 9 (BTNL9), wild type, FLAG-tagged or AM-tagged (natural protein, human, UniProt Q6UXG8-1 35-535, looked up)
chain: SSEVKVLGPEYPILALVGEEVEFPCHLWPQLDAQQMEIRWFRSQTFNVVHLYQEQQELPGRQMPAFRNRTKLVKDDIAYGSVVLQLHSIIPSDKGTYGCRFHSDNFSGEALWELEVAGLGSDPHLSLEGFKEGGIQLRLRSSGWYPKPKVQWRDHQGQCLPPEFEAIVWDAQDLFSLETSVVVRAGALSNVSVSIQNLLLSQKKELVVQIADVFVPGASAWKSAFVATLPLLLVLAALALGVLRKQRRSREKLRKQAEKRQEKLTAELEKLQTELDWRRAEGQAEWRAAQKYAVDVTLDPASAHPSLEVSEDGKSVSSRGAPPGPAPGHPQRFSEQTCALSLERFSAGRHYWEVHVGRRSRWFLGACLAAVPRAGPARLSPAAGYWVLGLWNGCEYFVLAPHRVALTLRVPPRRLGVFLDYEAGELSFFNVSDGSHIFTFHDTFSGALCAYFRPRAHDGGEHPDPLTICPLPVRGTGVPEENDSDTWLQPYEPADPALDWW
notes: bZIP domain annotated at residues 281-317; Two differently tagged copies of the same wild-type protein (FLAG copy as bait, AM-tag copy as prey) are written as one molecule; Each copy carries only one of the two tags; also called WT; BTNL9-FLAG; source: A549 and NCI-H460 cells, lentiviral infection, in lysate
stoichiometry N: 2
